According to patent US7408027:
One block for each substance: values may come before it.

Assays:
[1] = target: taxol-stabilized microtubules made from PC tubulin; assay: co-sedimentation of tau with taxol-stabilized microtubules, SDS gel densitometry, fitted binding curve
[2] = target: taxol-stabilized microtubules made from PC tubulin; assay: microtubule pelleting assay after MAP kinase
[3] = target: taxol-stabilized microtubules made from PC tubulin; assay: microtubule pelleting assay, gel densitometry, fitted
[4] = target: taxol-stabilized microtubules made from PC tubulin; assay: microtubule pelleting assay after brain extract phosphorylation
[5] = target: taxol-stabilized microtubules made from PC tubulin; assay: microtubule pelleting assay, gel densitometry, fitted; 30 µM polymerized tubulin
[6] = target: taxol-stabilized microtubules made from PC tubulin; assay: microtubule pelleting assay, microtubules from 10 µM tubulin with 20 µM taxol
[7] = target: taxol-stabilized microtubules made from PC tubulin; assay: co-sedimentation of tau with microtubules made from 10 µM tubulin in 20 µM taxol, fitted binding curve
[8] = target: taxol-stabilized microtubules made from PC tubulin; assay: microtubule pelleting assay after 35 kDal kinase, fitted
[9] = target: taxol-stabilized microtubules made from PC tubulin; assay: microtubule pelleting assay after 35 kDal kinase
[10] = target: taxol-stabilized microtubules made from PC tubulin; assay: co-sedimentation of tau with taxol-stabilized microtubules (30 µM polymerized tubulin), SDS gel densitometry, fitted binding curve
[11] = target: taxol-stabilized microtubules made from PC tubulin; assay: microtubule pelleting assay after 90 min phosphorylation
[12] = target: taxol-stabilized microtubules made from PC tubulin; assay: co-sedimentation of tau with microtubules in taxol, fitted binding curve (control curve)

Substance: htau40 phosphorylated by the brain extract kinase activity (from UniProt P10636 2-758)
Kd [1]: 9.6 µM
n [1]: 0.15
difference in stoichiometry upon phosphorylation (Dn) (tau/tubulin dimer) [4]: 0.31

Substance: htau23 phosphorylated by the 35 kDal kinase (from UniProt P10636 2-352)
Kd [8]: 8.8 µM
stoichiometry n (tau/tubulin dimer) (tau/tubulin dimer) [8]: 0.21
reduction in stoichiometry upon phosphorylation (Dn) (tau/tubulin dimer) [9]: 0.28

Substance: htau23 mutant Ser262-Ala phosphorylated with brain extract (from UniProt P10636 1-352)
difference in stoichiometry upon phosphorylation (Dn) (tau/tubulin dimer) [4]: 0.04

Substance: htau34 phosphorylated by the brain extract kinase activity (stage 2-3, up to 24 h) (from UniProt P10636 2-412)
Kd [10]: 10.4 µM
n [10]: 0.16

Substance: S404-A mutant of htau34 after 90 min of phosphorylation by the brain extract kinase activity (from UniProt P10636 1-412)
fold decrease of stoichiometry against the unphosphorylated mutant [11]: 2 fold

Substance: htau23/A404 (Ser404 replaced by Ala), unphosphorylated (from UniProt P10636 1-758)
Kd [1]: 4.3 µM
n [1]: 0.54

Substance: htau34 phosphorylated by the brain extract kinase activity for 90 min (stage 1) (from UniProt P10636 2-412)
fold decrease of stoichiometry against unphosphorylated htau34 [11]: 3 fold

Substance: human tau isoform htau40, bacterially expressed, unphosphorylated (from UniProt P10636 2-758)
Kd [1]: 1.1 µM
n [1]: 0.46

Further lines, results first:

Kd [1]: 1.9 µM
n [1]: 0.37
difference in stoichiometry upon phosphorylation (Dn) (tau/tubulin dimer) [2]: 0.09
Substance: htau40 phosphorylated with MAP kinase (from UniProt P10636 2-758)

Kd [3]: 6.1 µM
stoichiometry n (tau/tubulin dimer) (tau/tubulin dimer) [3]: 0.48
difference in stoichiometry upon phosphorylation (Dn) (tau/tubulin dimer) [4]: 0.01
Substance: AP18 phosphorylated with the brain extract activity (from UniProt P10636 1-352)

Kd [1]: 9.3 µM
n [1]: 0.32
Dn as percent of the unmutated control [4]: 52%
difference in stoichiometry upon phosphorylation (Dn) (tau/tubulin dimer) [4]: 0.17
Substance: htau23/A404 phosphorylated by the brain extract kinase activity (from UniProt P10636 1-352)

Kd [5]: 9.4 µM
stoichiometry n (tau/tubulin dimer) (tau/tubulin dimer) [5]: 0.31
Substance: htau23 mutant Ser202-Ala phosphorylated with brain extract (from UniProt P10636 1-352)

stoichiometry (tau per tubulin dimer) (per tubulin dimer) [6]: 0.6
Kd [7]: 2.4 µM
n [7]: 0.6
Substance: htau23 phosphorylated with GSK3 (from UniProt P10636 2-352)

Kd [10]: 1.4 µM
n [10]: 0.43
Kd [3]: 1 to 2 µM
Substance: human tau isoform htau34, bacterially expressed, unphosphorylated (from UniProt P10636 2-412)

Kd [10]: 4.9 µM
n [10]: 0.16
Kd [5]: 4.9 µM
stoichiometry n (tau/tubulin dimer) (tau/tubulin dimer) [5]: 0.16
difference in stoichiometry upon phosphorylation (Dn) (tau/tubulin dimer) [4]: 0.33
Kd [12]: 4.9 µM
n [12]: 0.16
Substance: htau23 phosphorylated by the brain extract kinase activity (stage 2-3, up to 24 h) (from UniProt P10636 2-352)
